Reference: patent US12630600B2 (MEDIMMUNE LIMITED, priority 2022, dated 2026)
Starred links: 1 amine or outer side, 2 acyl side, 3 side chain; linkers in the order of their positions; H or OH if unused. Non-standard residues stand in square brackets, D forms with d. Groups on a side chain read outwards from the residue. No end group written: not given here. *: point of attachment. C18 diacid = O=C(O)CCCCCCCCCCCCCCCCC(=O)*; γGlu = O=C(O)[C@H](CCC(=O)[*:2])N[*:1]; αMeF = C[C@](N)(Cc1ccccc1)C(=O)O; AEEA = NCCOCCOCC(=O)O; Aib = CC(C)(N)C(=O)O

Tests used:
Experiment in all cases: cell-based or functional assay
[1] = biological target: human GLP-1 receptor (human, UniProt P43220)
[2] = biological target: human GLP-1 receptor (human, UniProt P43220); remark: listed apart in the source
[3] = biological target: human glucagon receptor (human, UniProt P47871)

Row | Binder | cAMP production, hGLP-1R EC50 (pM) [1] | cAMP production EC50 [2] | cAMP production EC50 [3]
1 | H[Aib]QGTFTSDVSK[αMeF]LDTK([AEEA-AEEA-γGlu-C18 diacid])RAQDFVRWLLE[Aib]G-OH (N-terminus assumed; SMILES CC(C)C[C@H](NC(=O)[C@H](Cc1c[nH]c2ccccc12)NC(=O)[C@H](CCCNC(=N)N)NC(=O)[C@@H](NC(=O)[C@H](Cc1ccccc1)NC(=O)[C@H](CC(=O)O)NC(=O)[C@H](CCC(N)=O)NC(=O)[C@H](C)NC(=O)[C@H](CCCNC(=N)N)NC(=O)[C@H](CCCCNC(=O)COCCOCCNC(=O)COCCOCCNC(=O)CC[C@H](NC(=O)CCCCCCCCCCCCCCCCC(=O)O)C(=O)O)NC(=O)[C@@H](NC(=O)[C@H](CC(=O)O)NC(=O)[C@H](CC(C)C)NC(=O)[C@](C)(Cc1ccccc1)NC(=O)[C@H](CCCCN)NC(=O)[C@H](CO)NC(=O)[C@@H](NC(=O)[C@H](CC(=O)O)NC(=O)[C@H](CO)NC(=O)[C@@H](NC(=O)[C@H](Cc1ccccc1)NC(=O)[C@@H](NC(=O)CNC(=O)[C@H](CCC(N)=O)NC(=O)C(C)(C)NC(=O)[C@@H](N)Cc1c[nH]cn1)[C@@H](C)O)[C@@H](C)O)C(C)C)[C@@H](C)O)C(C)C)C(=O)N[C@@H](CC(C)C)C(=O)N[C@@H](CCC(=O)O)C(=O)NC(C)(C)C(=O)NCC(=O)O) [Peptide 140] | 22.7 pM |  | 
2 | H[Aib]HGS[αMeF]TSDVSK[αMeF]LDSK([AEEA-AEEA-γGlu-γGlu-C18 diacid])AARD[αMeF]VE[Aib]IANT-NH2 (N-terminus assumed; SMILES CC[C@H](C)[C@H](NC(=O)C(C)(C)NC(=O)[C@H](CCC(=O)O)NC(=O)[C@@H](NC(=O)[C@](C)(Cc1ccccc1)NC(=O)[C@H](CC(=O)O)NC(=O)[C@H](CCCNC(=N)N)NC(=O)[C@H](C)NC(=O)[C@H](C)NC(=O)[C@H](CCCCNC(=O)COCCOCCNC(=O)COCCOCCNC(=O)CC[C@H](NC(=O)CC[C@H](NC(=O)CCCCCCCCCCCCCCCCC(=O)O)C(=O)O)C(=O)O)NC(=O)[C@H](CO)NC(=O)[C@H](CC(=O)O)NC(=O)[C@H](CC(C)C)NC(=O)[C@](C)(Cc1ccccc1)NC(=O)[C@H](CCCCN)NC(=O)[C@H](CO)NC(=O)[C@@H](NC(=O)[C@H](CC(=O)O)NC(=O)[C@H](CO)NC(=O)[C@@H](NC(=O)[C@](C)(Cc1ccccc1)NC(=O)[C@H](CO)NC(=O)CNC(=O)[C@H](Cc1c[nH]cn1)NC(=O)C(C)(C)NC(=O)[C@@H](N)Cc1c[nH]cn1)[C@@H](C)O)C(C)C)C(C)C)C(=O)N[C@@H](C)C(=O)N[C@@H](CC(N)=O)C(=O)N[C@H](C(N)=O)[C@@H](C)O) [Peptide 20] | 152 pM |  | 
3 | H[Aib]QGTFTSDVSK[αMeF]LDSK([AEEA-AEEA-γGlu-C18 diacid])RAQDFVRWLL[Aib]TE-OH (N-terminus assumed; SMILES CC(C)C[C@H](NC(=O)[C@H](Cc1c[nH]c2ccccc12)NC(=O)[C@H](CCCNC(=N)N)NC(=O)[C@@H](NC(=O)[C@H](Cc1ccccc1)NC(=O)[C@H](CC(=O)O)NC(=O)[C@H](CCC(N)=O)NC(=O)[C@H](C)NC(=O)[C@H](CCCNC(=N)N)NC(=O)[C@H](CCCCNC(=O)COCCOCCNC(=O)COCCOCCNC(=O)CC[C@H](NC(=O)CCCCCCCCCCCCCCCCC(=O)O)C(=O)O)NC(=O)[C@H](CO)NC(=O)[C@H](CC(=O)O)NC(=O)[C@H](CC(C)C)NC(=O)[C@](C)(Cc1ccccc1)NC(=O)[C@H](CCCCN)NC(=O)[C@H](CO)NC(=O)[C@@H](NC(=O)[C@H](CC(=O)O)NC(=O)[C@H](CO)NC(=O)[C@@H](NC(=O)[C@H](Cc1ccccc1)NC(=O)[C@@H](NC(=O)CNC(=O)[C@H](CCC(N)=O)NC(=O)C(C)(C)NC(=O)[C@@H](N)Cc1c[nH]cn1)[C@@H](C)O)[C@@H](C)O)C(C)C)C(C)C)C(=O)N[C@@H](CC(C)C)C(=O)NC(C)(C)C(=O)N[C@H](C(=O)N[C@@H](CCC(=O)O)C(=O)O)[C@@H](C)O) [Peptide 39] |  | 0.0761 nM | 0.194 nM
